The labels stand for the following.
B1: AQ1-EEEGGG-Glu^γ-C13-CH3 (ligand)
chain 1: XLYSALANKCCHVGCTKRSLARFC
chain 2: ASWMEEVIKLCGRELVRAQIAICGMSTWS
peptide: EEEGGGE
modifications: not fully specified; Glu^γ bonded by amide to fatty acid -C13-CH3; oxime-linked to pAcF of the A chain; pAcF (para-acetyl-L-phenylalanine) at position 1, oxime-linked to PK enhancer EEEGGG-Glu^γ-C13-CH3
B2: AQ1-EESGGSGG-Glu^γ-C13-COOH (ligand)
chain 1: XLYSALANKCCHVGCTKRSLARFC
chain 2: ASWMEEVIKLCGRELVRAQIAICGMSTWS
peptide: EESGGSGGE
modifications: not fully specified; Glu^γ bonded by amide to fatty acid -C13-COOH; oxime-linked to pAcF of the A chain; pAcF (para-acetyl-L-phenylalanine) at position 1, oxime-linked to PK enhancer EESGGSGG-Glu^γ-C13-COOH
B3: AQ1-EEEGGG-dGlu^γ-C13-COOH (ligand)
chain 1: XLYSALANKCCHVGCTKRSLARFC
chain 2: ASWMEEVIKLCGRELVRAQIAICGMSTWS
peptide: EEEGGGE
modifications: not fully specified; dGlu^γ = D-glutamic acid (gamma), linked to fatty acid -C13-COOH; oxime-linked to pAcF of the A chain; pAcF (para-acetyl-L-phenylalanine) at position 1, oxime-linked to PK enhancer EEEGGG-dGlu^γ-C13-COOH
B4: AQ1-DRDDRD-C13-COOH (ligand)
chain 1: XLYSALANKCCHVGCTKRSLARFC
chain 2: ASWMEEVIKLCGRELVRAQIAICGMSTWS
peptide: DRDDRD
modifications: linked to fatty acid -C13-COOH; oxime-linked to pAcF of the A chain; pAcF (para-acetyl-L-phenylalanine) at position 1, oxime-linked to PK enhancer DRDDRD-C13-COOH
B5: AQ1-KSGGSGG-Glu^γ-C13-COOH (ligand)
chain 1: XLYSALANKCCHVGCTKRSLARFC
chain 2: ASWMEEVIKLCGRELVRAQIAICGMSTWS
peptide: KSGGSGGE
modifications: not fully specified; Glu^γ bonded by amide to fatty acid -C13-COOH; oxime-linked to pAcF of the A chain; pAcF (para-acetyl-L-phenylalanine) at position 1, oxime-linked to PK enhancer KSGGSGG-Glu^γ-C13-COOH
B6: AQ1-GETGSSGEGT-Glu^γ-C13-COOH (ligand)
chain 1: XLYSALANKCCHVGCTKRSLARFC
chain 2: ASWMEEVIKLCGRELVRAQIAICGMSTWS
peptide: GETGSSGEGTE
modifications: not fully specified; Glu^γ bonded by amide to fatty acid -C13-COOH; oxime-linked to pAcF of the A chain; pAcF (para-acetyl-L-phenylalanine) at position 1, oxime-linked to PK enhancer GETGSSGEGT-Glu^γ-C13-COOH
B7: AQ1-KKSGGSGG-Glu^α-C13-COOH (ligand)
chain 1: XLYSALANKCCHVGCTKRSLARFC
chain 2: ASWMEEVIKLCGRELVRAQIAICGMSTWS
peptide: KKSGGSGGE
modifications: not fully specified; Glu^α linked to fatty acid -C13-COOH; oxime-linked to pAcF of the A chain; pAcF (para-acetyl-L-phenylalanine) at position 1, oxime-linked to PK enhancer KKSGGSGG-Glu^α-C13-COOH
B8: AQ1-KKSAGSAG-Glu^γ-C13-COOH (ligand)
chain 1: XLYSALANKCCHVGCTKRSLARFC
chain 2: ASWMEEVIKLCGRELVRAQIAICGMSTWS
peptide: KKSAGSAGE
modifications: not fully specified; Glu^γ bonded by amide to fatty acid -C13-COOH; oxime-linked to pAcF of the A chain; pAcF (para-acetyl-L-phenylalanine) at position 1, oxime-linked to PK enhancer KKSAGSAG-Glu^γ-C13-COOH
B9: RLX-AQ1 (ligand)
chain 1: XLYSALANKCCHVGCTKRSLARFC
chain 2: ASWMEEVIKLCGRELVRAQIAICGMSTWS
modifications: pAcF (para-acetyl-L-phenylalanine) at position 1
B10: AQ1-GGGGS-Glu^γ-C15-COOH (ligand)
chain 1: XLYSALANKCCHVGCTKRSLARFC
chain 2: ASWMEEVIKLCGRELVRAQIAICGMSTWS
peptide: GGGGSE
modifications: not fully specified; Glu^γ bonded by amide to fatty acid -C15-COOH; oxime-linked to pAcF of the A chain; pAcF (para-acetyl-L-phenylalanine) at position 1, oxime-linked to PK enhancer GGGGS-Glu^γ-C15-COOH
B11: AQ1-GSHHHHHGS-Glu^γ-C13-COOH (ligand)
chain 1: XLYSALANKCCHVGCTKRSLARFC
chain 2: ASWMEEVIKLCGRELVRAQIAICGMSTWS
peptide: GSHHHHHGSE
modifications: not fully specified; Glu^γ bonded by amide to fatty acid -C13-COOH; oxime-linked to pAcF of the A chain; pAcF (para-acetyl-L-phenylalanine) at position 1, oxime-linked to PK enhancer GSHHHHHGS-Glu^γ-C13-COOH
B12: AQ1-EGGGGSK-Glu^γ-C13-COOH (ligand)
chain 1: XLYSALANKCCHVGCTKRSLARFC
chain 2: ASWMEEVIKLCGRELVRAQIAICGMSTWS
peptide: EGGGGSKE
modifications: not fully specified; Glu^γ bonded by amide to fatty acid -C13-COOH; oxime-linked to pAcF of the A chain; pAcF (para-acetyl-L-phenylalanine) at position 1, oxime-linked to PK enhancer EGGGGSK-Glu^γ-C13-COOH
B13: WT-RLX (ligand)
chain 1: QLYSALANKCCHVGCTKRSLARFC
chain 2: ASWMEEVIKLCGRELVRAQIAICGMSTWS
modifications: disulfide (positions not given here); ends not checked
B14: AQ1-EEEEPEEEEPEEEEPEEEE-Glu^γ-C14-CH3 (ligand)
chain 1: XLYSALANKCCHVGCTKRSLARFC
chain 2: ASWMEEVIKLCGRELVRAQIAICGMSTWS
peptide: EEEEPEEEEPEEEEPEEEEE
modifications: not fully specified; Glu^γ bonded by amide to fatty acid -C14-CH3; oxime-linked to pAcF of the A chain; pAcF (para-acetyl-L-phenylalanine) at position 1, oxime-linked to PK enhancer EEEEPEEEEPEEEEPEEEE-Glu^γ-C14-CH3
B15: AQ1-Sar-Sar-Sar-Sar-Ser-Glu^γ-C13-COOH (ligand)
chain 1: XLYSALANKCCHVGCTKRSLARFC
chain 2: ASWMEEVIKLCGRELVRAQIAICGMSTWS
peptide: XXXXSE
modifications: not fully specified; Sar = sarcosine (N-methylglycine); Glu^γ bonded by amide to fatty acid -C13-COOH; oxime-linked to pAcF of the A chain; pAcF (para-acetyl-L-phenylalanine) at position 1, oxime-linked to PK enhancer Sar-Sar-Sar-Sar-Ser-Glu^γ-C13-COOH
B16: AQ1-EEEGGG-Glu^γ-C17-COOH (ligand)
chain 1: XLYSALANKCCHVGCTKRSLARFC
chain 2: ASWMEEVIKLCGRELVRAQIAICGMSTWS
peptide: EEEGGGE
modifications: not fully specified; Glu^γ bonded by amide to fatty acid -C17-COOH; oxime-linked to pAcF of the A chain; pAcF (para-acetyl-L-phenylalanine) at position 1, oxime-linked to PK enhancer EEEGGG-Glu^γ-C17-COOH
B17: AQ1-EEEGGG-Glu^γ-C15-COOH (ligand)
chain 1: XLYSALANKCCHVGCTKRSLARFC
chain 2: ASWMEEVIKLCGRELVRAQIAICGMSTWS
peptide: EEEGGGE
modifications: not fully specified; Glu^γ bonded by amide to fatty acid -C15-COOH; oxime-linked to pAcF of the A chain; pAcF (para-acetyl-L-phenylalanine) at position 1, oxime-linked to PK enhancer EEEGGG-Glu^γ-C15-COOH
B18: AQ1-KKKKKK-Glu^γ-C13-COOH (ligand)
chain 1: XLYSALANKCCHVGCTKRSLARFC
chain 2: ASWMEEVIKLCGRELVRAQIAICGMSTWS
peptide: KKKKKKE
modifications: not fully specified; Glu^γ bonded by amide to fatty acid -C13-COOH; oxime-linked to pAcF of the A chain; pAcF (para-acetyl-L-phenylalanine) at position 1, oxime-linked to PK enhancer KKKKKK-Glu^γ-C13-COOH
B19: AQ1-KKSGGSGG-Glu^γ-C13-COOH (ligand)
chain 1: XLYSALANKCCHVGCTKRSLARFC
chain 2: ASWMEEVIKLCGRELVRAQIAICGMSTWS
peptide: KKSGGSGGE
modifications: not fully specified; Glu^γ bonded by amide to fatty acid -C13-COOH; oxime-linked to pAcF of the A chain; pAcF (para-acetyl-L-phenylalanine) at position 1, oxime-linked to PK enhancer KKSGGSGG-Glu^γ-C13-COOH

Ends that are not written are not given here.

This experiment deals with T1, human RXFP1 receptor (human, UniProt Q9HBX9 1-757).
T1 sequence (looked up): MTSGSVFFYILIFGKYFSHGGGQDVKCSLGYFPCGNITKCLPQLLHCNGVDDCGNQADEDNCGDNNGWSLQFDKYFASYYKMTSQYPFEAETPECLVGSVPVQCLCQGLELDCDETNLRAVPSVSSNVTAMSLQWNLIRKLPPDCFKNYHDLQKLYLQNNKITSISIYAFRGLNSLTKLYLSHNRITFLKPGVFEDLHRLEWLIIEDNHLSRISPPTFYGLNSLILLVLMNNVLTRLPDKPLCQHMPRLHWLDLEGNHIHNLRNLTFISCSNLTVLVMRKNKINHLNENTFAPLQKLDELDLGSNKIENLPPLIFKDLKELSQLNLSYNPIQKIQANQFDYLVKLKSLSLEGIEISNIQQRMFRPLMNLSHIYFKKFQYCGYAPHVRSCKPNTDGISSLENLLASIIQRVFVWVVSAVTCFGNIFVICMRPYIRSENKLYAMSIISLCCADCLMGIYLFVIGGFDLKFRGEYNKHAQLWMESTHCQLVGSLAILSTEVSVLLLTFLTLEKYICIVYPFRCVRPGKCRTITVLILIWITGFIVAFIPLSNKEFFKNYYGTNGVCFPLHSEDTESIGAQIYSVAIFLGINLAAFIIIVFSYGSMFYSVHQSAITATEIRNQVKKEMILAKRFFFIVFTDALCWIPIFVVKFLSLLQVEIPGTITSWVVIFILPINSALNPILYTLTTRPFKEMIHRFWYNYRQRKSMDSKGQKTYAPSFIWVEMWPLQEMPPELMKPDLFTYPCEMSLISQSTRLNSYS
The experiment can be described thus: cell-based or functional assay.
For B1, the “hRXFP1/CHO-K1 cAMP EC50 (nM, avg)” value turned out to be 0.38 nM.

Take B2: the “hRXFP1/CHO-K1 cAMP EC50 (nM, avg)” value is 0.83 nM.

Take B3: the “hRXFP1/CHO-K1 cAMP EC50 (nM, avg)” value is 1.91 nM.

As for B4, the “hRXFP1/CHO-K1 cAMP EC50 (nM, avg)” value worked out at 0.32 nM.

Turning to B5, the “hRXFP1/CHO-K1 cAMP EC50 (nM, avg)” value turned out to be 0.24 nM.

For the molecule B6, the “hRXFP1/CHO-K1 cAMP EC50 (nM, avg)” value stood at 0.65 nM.

As to B7, the “hRXFP1/CHO-K1 cAMP EC50 (nM, avg)” value is 0.27 nM.

On to B8, for which the “hRXFP1/CHO-K1 cAMP EC50 (nM, avg)” value turned out to be 0.27 nM.

Take B9: the “hRXFP1/CHO-K1 cAMP EC50 (nM, avg)” value came out at 0.11 nM.

B10: the “hRXFP1/CHO-K1 cAMP EC50 (nM, avg)” value was determined as 1.55 nM.

In the case of B11, the “hRXFP1/CHO-K1 cAMP EC50 (nM, avg)” value came out at 0.28 nM.

For B12, the “hRXFP1/CHO-K1 cAMP EC50 (nM, avg)” value stood at 0.31 nM.

On to B13, for which the “hRXFP1/CHO-K1 cAMP EC50 (nM, avg)” value came to 0.12 nM.

For the molecule B14, the “hRXFP1/CHO-K1 cAMP EC50 (nM, avg)” value came to 0.33 nM.

B15: the “hRXFP1/CHO-K1 cAMP EC50 (nM, avg)” value stood at 0.32 nM.

Take B16: the “hRXFP1/CHO-K1 cAMP EC50 (nM, avg)” value amounted to 10.5 nM.

For the molecule B17, the “hRXFP1/CHO-K1 cAMP EC50 (nM, avg)” value amounted to 5.26 nM.

In the case of B18, the “hRXFP1/CHO-K1 cAMP EC50 (nM, avg)” value stood at 0.08 nM.

As to B19, the “hRXFP1/CHO-K1 cAMP EC50 (nM, avg)” value was 0.34 nM.
